According to patent US20260356933 (published 2026):
Where a chain is given by its changes, count along the chain named. Each block holds one binder with its values, some of them ahead of it.

Biological target: IL6 (human, UniProt P05231)
Test: ELISA, apparent

Sequence of IL6 (P05231 30-212): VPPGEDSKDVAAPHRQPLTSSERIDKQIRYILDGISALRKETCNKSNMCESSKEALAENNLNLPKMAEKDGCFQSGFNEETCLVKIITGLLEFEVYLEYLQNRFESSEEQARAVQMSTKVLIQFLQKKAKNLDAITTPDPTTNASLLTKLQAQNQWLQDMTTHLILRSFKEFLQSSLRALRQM

B2: SIL-3B6 (antibody, V domains shown)
VH: EVQLVESGGGLVQPGGSLRLSCAASGSIFDDHAIGWFRQAPGKEREGVSSIMTSDDSTHYADSVKGRFTVSRDKAKNTVYLQMNDLKPEDTAVYYCAATDVFGLQYSSFLKSYEYDYWGQGTQVTVSS
- Kd: 20 nM

B3: SIL-2D1 (antibody, V domains shown)
VH: EVQLVESGGGSVQPGGSLRLSCAASGFTLADESSGWFRQAPGKEREGVSCISITDGITYYADSVKGRFTISRDNAKNTLYLQMNSLKPEDTAVYYCATGNPYCSGHAGTEYDDWGQGTQVTVSS
- Kd: 80 nM

B7: SIL-2E7 (antibody, V domains shown)
VH: EVQLVESGGGLVQAGGSLRLSCAASGRTFSKNTMGWFRQAPGKEREFVAAISWSVGSTYYGDSVNGRFTISRDDAKNTVYLQMNSLKPEDTAIYYCAADSSHYMLHPELREYDYWGQGTQVTVSS
- Kd: 2 nM

B8: SIL-3B7 (antibody, V domains shown)
VH: EVQLVESGGGLVQAGGSLRLSCAASARTFSNYAMGWFRQAPGKEREFVAGISWSGGYTSYADSVKGRFTISRDNAKNTVALEMNSLKPEDTAVYYCAAEGVIDELPIKTMRYEYDYWGQGTQVTVSS
- Kd: > 1000 nM

More lines, now with the values ahead:

- Kd: > 1000 nM
B1: SIL-2E4 (antibody, V domains shown)
VH: B2 VH with V70I, D85N

- Kd: > 1000 nM
B4: SIL-3E7 (antibody, V domains shown)
VH: EVQLVESGGGLVQAGGSLRLSCAASARTFSNYALGWFRQVPGKEREFVAGITWSGDNTYYADSVKDRFTISRDNAKNTVWLQMNSLRPEDTAVYICAAEAVLEDKVAVSTMRYEYDYWGQGTQVTVSS

- Kd: 5 nM
B5: SIL-2D8 (antibody, V domains shown)
VH: EVQLVESGGGLVQAGGSLRLSCTASGHNADTYAMGWFRQAPGKEREFVTGISWTGVGTYIADSVKGRFTISRDNAKNTVYLQMNSLKPEDTAVYRCAAGSDYSDSHYDKSYEYDYWGQGTQVTVSS

- Kd: 1 nM
B6: SIL-2F5 (antibody, V domains shown)
VH: B5 VH with T23A, H27R, N28A, A40S, K43S, E44R, V56S, I60Y, N74T, R95Y
